Tests used:
[1] = target: T1, toxin CcdB2 (F plasmid CcdB dimer) (E. coli F plasmid, UniProt P62554 1-101); assay: ITC
[2] = target: T1, toxin CcdB2 (F plasmid CcdB dimer); assay: ITC; remark: listed apart in the source
[3] = target: T2, CcdA2 (antitoxin dimer);CcdB2 (toxin dimer) (Escherichia coli (F …, UniProt P62552;P62554 1-72;1-101, |)); assay: EMSA
[4] = target: T2, CcdA2 (antitoxin dimer);CcdB2 (toxin …); assay: EMSA; remark: listed apart in the source
[5] = target: T2, CcdA2 (antitoxin dimer);CcdB2 (toxin …); assay: ITC

B1: antitoxin CcdA2 (F plasmid CcdA dimer, full length) (natural protein, E. coli F plasmid, UniProt P62552 1-72, looked up)
chain: MKQRITVTVDSDSYQLLKAYDVNISGLVSTTMQNEARRLRAERWKAENQEGMAEVARFIEMNGSFADENRDW
- difference between the high and low affinity binding constants [1]: ~1e+06 fold

B2: CcdAC, truncated CcdA comprising the entire C-terminal domain (CcdA^37-72) (peptide, UniProt P62552 37-72, looked up)
chain: RRLRAERWKAENQEGMAEVARFIEMNGSFADENRDW
- binding result [2]: binds

B3: Ccd3 (3 binding sites) (dsDNA)
DNA 1: ACGTGCGGTATAAGAATATATACTGATATGTATACCCGAATA
DNA 2: TATTCGGGTATACATATCAGTATATATTCTTATACCGCACGT
- binding result [3]: binds

B4: Random (dsDNA)
DNA 1: TGCCCAAGTGATGCTAAACAAGACTTAGCTGGTTCCTGTGTT
DNA 2: AACACAGGAACCAGCTAAGTCTTGTTTAGCATCACTTGGGCA
- binding result [4]: no binding

B5: CcdITC (3 binding sites) (dsDNA)
DNA 1: GCGGTATAAGAATATATACTGATATGTATACCC
DNA 2: GGGTATACATATCAGTATATATTCTTATACCGC
- binding result [5]: binds
